# Laboratory results taken from PMC6650482, “Tyrosine 51 residue of the syndecan-2 extracellular domain is involved in the interaction with and activation of pro-matrix metalloproteinase-7” (Scientific Reports, 2019).
# Entries after “also recorded” stand apart in the source; their conditions may differ.
# T1: His-tagged pro-domain of MMP-7 (His-PD) (Homo sapiens, UniProt P09237)
# T1 construct: His tag; pET32a(+) vector-encoded fusion part (thioredoxin/S-tag by own knowledge of the vector); made in house
# T1 sequence (P09237 18-94 limits assumed): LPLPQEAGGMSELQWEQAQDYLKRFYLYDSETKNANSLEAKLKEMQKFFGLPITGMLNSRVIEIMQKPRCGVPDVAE
# Assays:
# GST-SDC-2 = test: In vitro binding of MMP-7 pro-domain fragments to GST-SDC2; design: species or system human; details: GST-SDC-2, glutathione-agarose beads, anti-His immunoblot
# Description: (§1) Figure 4 The α2–3 helix of the MMP-7 pro-domain is involved in its interaction with the syndecan-2 extracellular domain. (A) Structure of the MMP-7 pro-domain (PDB; 2MZE) and schematic diagram of the MMP-7 pro-domain (PD) and its deletion mutants. The indicated MMP-7 pro-domain mutants were purified with Ni-NTA agarose beads, separated by SDS-PAGE. Purified MMP-7 pro-domain mutants were incubated with GST-SDC-2. Materials bound to glutathione-agarose beads were immunoblotted with an anti-His tag antibody and the membranes were stripped and re-probed with an anti-GST antibody. Image is of a single membrane cropped to remove intervening lanes. (B) Purified GST-SDC2 mutants were incubated with His-tagged α2–3 helix of the MMP-7 pro-domain. Materials bound to glutathione-agarose beads were immunoblotted with an anti-His tag antibody (top) and the membranes were then stripped and re-probed with an anti-GST antibody (bottom). (C) The secondary structure of the α2–3 helix of the MMP-7 pro-domain was analyzed using CD in the presence of different concentrations of TFE (top). Quantitative estimations of the secondary-structure content were made with the CDPro software package, which includes the programs CDSSTR, CONTIN, and SELCON3. […] Smaller values of NRMSD indicate closer correspondence between calculated structures and the experimental data.
# [1] = Circular dichroism secondary structure; format: physicochemical
# Description: Figure 2 The pro-domain of MMP-7 is involved in its interaction with the syndecan-2 extracellular domain. (A) Schematic representations of the pro-domain of MMP-7 (PD) and the deletion mutants lacking the pro-domain, N-terminus (ΔN), C-terminus (ΔC) and both N- and C-terminus (ΔNC) (top). His-tagged MMP-7 pro-domain was purified with Ni-NTA agarose beads, separated by SDS-PAGE and stained with Coomassie Blue (bottom). (B) Purified GST-S2E, S2E-C and S2E-NII were incubated with His-tagged PD, or ΔN, ΔC or ΔNC MMP-7 pro-domain. Materials bound to glutathione-agarose beads were immunoblotted with an anti-His tag antibody (top). The membranes were then stripped and re-probed with an anti-GST antibody (bottom). […] Absorbance was measured at 450 nm. […]
# Figure 4 The α2–3 helix of the MMP-7 pro-domain is involved in its interaction with the syndecan-2 extracellular domain. […] (C) The secondary structure of the α2–3 helix of the MMP-7 pro-domain was analyzed using CD in the presence of different concentrations of TFE (top). Quantitative estimations of the secondary-structure content were made with the CDPro software package, which includes the programs CDSSTR, CONTIN, and SELCON3. […] Smaller values of NRMSD indicate closer correspondence between calculated structures and the experimental data. […]
# [2] = system: N-terminus of the extracellular domain of syndecan-2; test: In vitro binding of MMP-7 α2–3 helix with N-terminus of the syndecan-2 extracellular domain; design: species or system human; details: His-tagged α2–3, GST-SDC2 mutants, anti-His immunoblot
# Description: as §1
# [3] = system: His-tagged α2–3 helix of the MMP-7 pro-domain; test: In vitro binding of GST-SDC2 proteins to His-tagged α2–3; design: species or system human; details: 2 h at 4 °C, glutathione-agarose beads, immunoblot
# Description: as §1, with “data. […]” for “data.”
# [4] = biological target: His-tagged pro-domain of MMP-7 (His-PD) (human, UniProt P09237 18-267, Limits are the UniProt activation peptide. Paper's NMR numbering + 24 = precursor numbering (Gln7=Q31, Glu32=E56, Gly48=G72, Ser52=S76). Deletion-construct numbering implies a PD of about 79 residues,); test: other fluorescence titration; tryptophan quenching; 15 uM His-PD, S2-P titrated up to 1:200 molar ratio; PBS pH 7.4, 298 K; excitation 280 nm, intensity at 347 nm; details: both partners purified
# [5] = biological target: T1, His-tagged pro-domain of MMP-7 (His-PD); test: In vitro binding (GST pulldown / anti-His immunoblot) with His-PD; details: GST-tagged proteins
# Description: Figure 1 The N-terminus of syndecan-2 interacts with the pro-domain of MMP-7. (A) Schematic representation of the syndecan-2 core protein (SDC2) and MMP-7. The signal peptide (SP), the extracellular domain (EC), the transmembrane domain (TM), and the cytoplasmic domain (CT) of syndecan-2 are noted, and the various deletion mutants are indicated. A peptide corresponding to residues 41–60 of the syndecan-2 extracellular domain (S2-P) was synthesized. Syndecan-2 is labeled with amino acid numbers to show the location of each deletion (left). Schematic representation of MMP-7. The pre-domain (Pre), pro-domain (PD), and catalytic domain are shown (right top). Purified GST-SDC2 mutants and the His-tagged pro-domain of MMP-7 were separated by 15% SDS-PAGE and stained with Coomassie Blue (right bottom). (B) Purified GST or GST-SDC2 mutants were incubated with His-tagged pro-domain of MMP-7 (His-PD). Bound materials were subjected to immunoblotting with an anti-His tag antibody (top). The membranes were then stripped and re-probed with an anti-GST antibody (bottom). (C) Purified GST-SDC2 was incubated with purified His-PD MMP-7 plus the indicated amounts of S2-P for 2 h at 4 °C. Bound materials were subjected to immunoblotting with an anti-His tag antibody (top). […] (D) Fluorescence spectroscopy indicates the binding affinity between His-PD and S2-P peptide. […]
# [6] = system: His-tagged ΔNC MMP-7 pro-domain; test: In vitro binding of GST-SDC2 mutants to His-ΔNC; design: species or system human; details: 2 h at 4 °C, immunoblot
# Description: Figure 2 The pro-domain of MMP-7 is involved in its interaction with the syndecan-2 extracellular domain. (A) Schematic representations of the pro-domain of MMP-7 (PD) and the deletion mutants lacking the pro-domain, N-terminus (ΔN), C-terminus (ΔC) and both N- and C-terminus (ΔNC) (top). His-tagged MMP-7 pro-domain was purified with Ni-NTA agarose beads, separated by SDS-PAGE and stained with Coomassie Blue (bottom). (B) Purified GST-S2E, S2E-C and S2E-NII were incubated with His-tagged PD, or ΔN, ΔC or ΔNC MMP-7 pro-domain. Materials bound to glutathione-agarose beads were immunoblotted with an anti-His tag antibody (top). The membranes were then stripped and re-probed with an anti-GST antibody (bottom). (C) ELISA plates coated with 600 ng of S2-P were incubated with the indicated His-tagged MMP-7 pro-domains (500 ng/well) for 2 h at 20 °C. The plates were washed, incubated with an anti-His tag antibody followed by IgG-HRP, and developed with TMB-ELISA. Absorbance was measured at 450 nm. Data are shown as mean ± S.D. (n = 3), *p < 0.05 versus blank. (D) Purified GST-SDC2 was mixed with His-tagged ΔNC for 2 h at 4 °C., separated by SDS-PAGE, and immunoblotted with anti-His or -GST antibodies. (E) The secondary structures of the MMP-7 pro-domain mutants of ΔN, ΔC and ΔNC were diluted to 50 μM in a buffer consisting of 10 mM HEPES and 20 mM NaCl, pH 8, and kept at 20 °C. […]
# Sequence of His-tagged pro-domain of MMP-7 (His-PD) (human, UniProt P09237 18-267, Limits are the UniProt activation peptide. Paper's NMR numbering + 24 = precursor numbering (Gln7=Q31, Glu32=E56, Gly48=G72, Ser52=S76). Deletion-construct numbering implies a PD of about 79 residues,) (P09237 18-267): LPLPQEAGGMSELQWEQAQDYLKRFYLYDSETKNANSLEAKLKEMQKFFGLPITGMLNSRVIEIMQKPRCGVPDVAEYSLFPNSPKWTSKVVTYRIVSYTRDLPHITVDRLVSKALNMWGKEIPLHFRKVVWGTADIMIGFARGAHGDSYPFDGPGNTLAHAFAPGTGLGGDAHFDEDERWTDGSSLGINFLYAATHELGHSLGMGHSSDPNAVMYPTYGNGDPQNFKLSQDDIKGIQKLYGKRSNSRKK
molecule,measurement,setting,value
α2–3: α2 helix-loop-α3 helix protein fragment of the MMP-7 pro-domain,"interaction with syndecan-2 (pulldown, qualitative)",GST-SDC-2,"interacted with syndecan-2, although to a slightly weaker degree than ΔNC; also recorded: interacted with recombinant syndecan-2 in vitro"
same,helicity,"[1]; CD, α-helical fraction from CDPro, without TFE",75%
same,secondary structure by CD (qualitative),"[1]; far-UV CD, pro-domain mutants at 50 μM, 10 mM HEPES, 20 mM NaCl, pH 8, 20 °C (Fig. 2E), α2–3 in Fig. 4C","had a helical structure, as suggested by the presence of minima (negative peaks) at 208 and 222 nm"
same,"interaction with the N-terminus of the extracellular domain of syndecan-2 (pulldown, qualitative)",[2],interacted with the N-terminus of the extracellular domain of syndecan-2
"recombinant syndecan-2: Purified GST-SDC2 (protein, UniProt P34741 19-201, looked up, GST tag, Purified GST-SDC2) Syndecan-2: ESRAELTSDKDMYLDNSSIEEASGVYPIDDDDYASASGSGADEDVESPELTTSRPLPKILLTSAAPKVETTTLNIQNKIPAQTKSPEETDKEKVHLSDSERKMDPAEEDTNVYTEKHSDSLFKRTEVLAAVIAGGVIGFLFAIFLILLLVYRMRKKDEGSYDLGERKPSSAAYQKAPTKEFYA","interaction with α2–3 (pulldown, qualitative)",[3],interacted with the α2–3
"SGVYPIDDDDYASASGSGAD (human syndecan-2 extracellular domain residues 41-60; also called S2-P peptide; source: synthetic peptide (Fmoc solid-phase, Anygen Inc.)) [synthetic human syndecan-2 peptide (S2-P), extracellular domain residues 41-60]",Kd,[4],1586 ± 12 µM
"S2E: GST-tagged syndecan-2 extracellular domain (protein, left off: GST, end not stated, kept, GST-tagged syndecan-2 extracellular domain) ESRAELTSDKDMYLDNSSIEEASGVYPIDDDDYASASGSGADEDVESPELTTSRPLPKILLTSAAPKVETTTLNIQNKIPAQTKSPEETDKEKVHLSDSERKMDPAEEDTNVYTEKHSDSLFKRTE","interaction with His-PD (pulldown, qualitative)",[5],interacted with the pro-domain of MMP-7
"D49A: substitution of Asp49 with Ala in the syndecan-2 extracellular domain (protein, left off: GST, end not stated, kept, substitution of Asp49 with Ala in the syndecan-2 extracellular domain) ESRAELTSDKDMYLDNSSIEEASGVYPIDDADYASASGSGADEDVESPELTTSRPLPKILLTSAAPKVETTTLNIQNKIPAQTKSPEETDKEKVHLSDSERKMDPAEEDTNVYTEKHSDSLFKRTE","interaction with His-tagged ΔNC (pulldown, qualitative)",[6],did not affect its interaction
"Y51A: substitution of Tyr51 with Ala in the syndecan-2 extracellular domain (protein, left off: GST, end not stated, kept, substitution of Tyr51 with Ala in the syndecan-2 extracellular domain) ESRAELTSDKDMYLDNSSIEEASGVYPIDDDDAASASGSGADEDVESPELTTSRPLPKILLTSAAPKVETTTLNIQNKIPAQTKSPEETDKEKVHLSDSERKMDPAEEDTNVYTEKHSDSLFKRTE","interaction with His-tagged ΔNC (pulldown, qualitative)",[6],significantly reduced the interaction
same,"interaction with α2–3 (pulldown, qualitative)",[3],failed to interact with the α2–3
